According to the RNAGym collection of RNA variant scans (doi:10.7554/elife.80360):

B1: HDV Ribozyme (parent)
chain: GGCCGGCAUGGUCCCAGCCUCCUCGCUGGCGCCGGCUGGGCAACAUUCCGAGGGGACCGUCCCCUCGGUAAUGGCGAAUGGGACCCA

Variants of: B1
Experiment: self-cleavage, relative activity (ratio to wild type); higher = more cleavage; co-transcriptional

Variant | self-cleavage
U9A C84G | 0.554
U9A C84A | 0.886
A8G U12C | 0.151
A8G U12A | 0
A8U C13U | 0.302
A8U G73U | 0.199
A8U G73C | 0.0831
A8U G73A | 0.323
A8G G53U | 1.02
A8G G53A | 1.04
A8G A87U | 0.991
A8U | 0.863
A8G | 1.02
U9A C19A | 0.194
A8U U27A | 0.578
A8U U27C | 0.196
A8G C30A | 0.237
A8G C30U | 0.806
A8G C30G | 0.128
U9A A87U | 1.03
U9A A87G | 1.13
U9A A87C | 1.04
A8U G38U | 0.326
A8U G38A | 0.141

Variant | self-cleavage
A8U G38C | 0.095
A8G C14A | 0.0791
A8G C14U | 0.997
A8G G52U | 0.849
A8G C58G | 0.895
A8G C58U | 0.962
A8G C58A | 1.07
A8G C19A | 0.107
A8U A70C | 0.692
A8U C49A | 1.13
A8U C49G | 0.76
A8U C49U | 0.739
U9A A56U | 0.867
A8U G10U | 0.341
A8U G10A | 0.684
A8C U69A | 0.688
A8C U69G | 0.712
A8U U60G | 0.89
A8U U60C | 0.492
A8U U46A | 0.415
A8U U46C | 0.554
A8G G29C | 0
A8G G29A | 0
U9A A42C | 0.252

Variant | self-cleavage
U9A A42G | 0.361
A8U G82C | 0.0923
A8U G82U | 0.185
A8G G38C | 0.138
A8G A42G | 0.68
A8G A42U | 0.317
A8U G17C | 0.0755
U9A C15G | 0.499
U9A C15U | 1.02
A8U U23G | 0.415
A8U G28C | 0.166
A8U G28U | 0.131
A8G U65C | 1.05
A8U G39A | 0.318
U9A A77C | 0.383
U9A A77U | 0.506
A8U A16C | 0.831
A8G U9C | 1.11
A8G U9A | 0.506
A8U G52A | 0.692
A8U G52U | 0.872
A8U G59C | 1.02
A8U G59A | 0.79
A8G G31U | 0.587

Variant | self-cleavage
A8G G31A | 0.415
A8G G31C | 0.145
A8G G81A | 0.0875
U9A C75G | 0.0665
A8U C24A | 0.208
A8U C24U | 0.787
U9A C64U | 1.04
U9A C64G | 0.759
A8U A56G | 0.957
A8U A56C | 1.25
A8U A56U | 0.705
U9A C61G | 0.682
U9A C61U | 0.986
A8G A16G | 1.14
A8C U20C | 0
U9A C48U | 0.914
U9A C48A | 1.01
A8U G74C | 0.166
A8U A45C | 0.166
A8G C48U | 1.26
A8G C48G | 1.11
A8G C48A | 1.07
A8C U60C | 0.489
A8C U60A | 0.831

Variant | self-cleavage
A8U U20A | 0.166
A8U U20C | 0
A8G G39A | 0.302
A8G G39U | 0.54
A8U C48A | 0.875
A8U C48G | 1.25
U9A C33U | 0.808
U9A C33G | 0.0692
U9A C33A | 0.185
A8G G54A | 0.877
A8G G54C | 1.07
A8G G80U | 0.173
A8G C15A | 0.554
A8G C15U | 0.7
A8G C15G | 0.262
A8U U9A | 0.63
A8U U9C | 0.906
A8G G82A | 0.237
A8U C15A | 0.369
A8U C15G | 0.277
A8G G74A | 0.256
A8G G74C | 0.0639
A8U A77G | 0.779
A8U A77C | 0.0665

Variant | self-cleavage
A8U A77U | 0.0898
A8G G40C | 0.369
A8G G40U | 0.554
A8U U79C | 0.177
A8U C86A | 0.997
A8G C66G | 0.969
A8G C66A | 0.886
A8U G67C | 0.718
A8U U47A | 0.767
A8C U46C | 0.615
A8C U46G | 0.554
A8U A78U | 0.128
A8U A78G | 0.388
A8U C44G | 0.731
A8U C44U | 0.415
A8U C44A | 0.449
A8C U47A | 0.519
A8U C26A | 0.997
A8U C26U | 0.86
A8U C26G | 1.03
U9A A78C | 0.359
U9A A78G | 1.04
U9A A78U | 0.332
A8G C49U | 0.692

Variant | self-cleavage
A8G C49G | 1.27
A8G A83C | 0.262
A8G A83G | 0.88
A8G C13A | 0.175
A8G C21U | 0.201
A8G C21G | 0.0536
U9A C44G | 0.914
U9A C44A | 0.831
U9A C44U | 0.95
A8U U37C | 0.87
A8U U37A | 0.201
A8G C85U | 1.06
A8G A77U | 0.0978
A8G A77G | 0.867
U9A C49U | 0.831
U9A C21A | 0.0739
U9A C21G | 0.0462
U9A G10U | 0.855
U9A G10C | 0.875
A8G G68U | 0.855
A8G C63A | 1.22
A8G C63G | 1.11
A8U C64A | 0.538
A8G C24U | 0.665

Variant | self-cleavage
A8G C24A | 0.762
A8G C24G | 0.0639
U9A C66A | 0.95
A8G G76C | 1.13
A8G G11A | 0.196
U9A C57A | 1.02
U9A C57U | 1.19
U9A C32A | 0.0898
U9A C32U | 0.911
A8U G11A | 0.151
A8U U12G | 0.594
A8U U12A | 0.208
A8U C41A | 0.443
U9A A71U | 0.688
U9A A71G | 0.506
U9A G11A | 0.539
A8C U65G | 0.985
A8C U65A | 0.76
A8C U65C | 0.684
A8G A71C | 0.447
A8G A71G | 0.739
A8G A71U | 0.902
A8U C75U | 0.298
A8U C75A | 0

Variant | self-cleavage
U9A C41G | 0.831
U9A C41U | 1.07
A8U C19U | 0.0308
A8U G31C | 0.115
U9A C30A | 0.732
U9A C30U | 0.776
U9A C30G | 0.138
U9A C22U | 0.831
U9A C22A | 0.388
A8G A43C | 0.145
A8G A43U | 0.519
A8G A43G | 0.415
A8U G76C | 0.965
A8U G35A | 0.426
U9A C58G | 0.929
U9A C58A | 0.789
U9A C58U | 0.77
A8U G80A | 0.227
A8G U60C | 1.16
U9A C24G | 0.111
U9A C24U | 0.449
U9A C24A | 0.914
A8U C22U | 0.598
A8U C22G | 0.19

Variant | self-cleavage
A8U G40C | 0.234
A8U G40U | 0.415
A8U G53U | 0.867
A8U G53A | 0.665
A8G C57G | 1.27
A8G C57U | 1.16
A8G C61U | 0.982
A8G U72A | 0.554
A8G U72C | 0.293
A8G C26A | 1.11
A8G C26U | 1.16
A8U G54U | 0.574
A8U G54A | 0.831
A8U C30A | 0.299
A8U C30U | 0.529
A8G U37C | 1.22
A8U U69G | 0.59
A8G G34C | 0.0573
A8G G34U | 0.429
A8G G34A | 0.095
A8G A51U | 1.06
A8G A51C | 0.962
A8G C64A | 0.764
A8U G81A | 0.148

Variant | self-cleavage
A8U G81C | 0.115
A8C U12G | 0.831
A8U C21U | 0.147
A8U C21G | 0.119
A8U A42U | 0.314
U9A C26A | 0.76
U9A C26G | 0.623
A8U C58U | 1.15
A8U C58A | 0.862
U9A A83G | 0.67
U9A A83U | 0.643
U9A C63U | 1.19
A8G G25A | 0.0639
A8G G25C | 0.175
U9A C13U | 1.36
U9A C13A | 0.119
A8U C57U | 0.91
A8G U27A | 0.867
A8G U27C | 0.791
A8G A78U | 0.266
A8G A78C | 0.166
A8U C33A | 0.185
A8G G55U | 0.804
A8G G55C | 0.982

Variant | self-cleavage
A8U G29U | 0.0437
A8U G29A | 0.0852
A8U A87U | 0.963
A8U G68U | 0.858
A8U G68C | 0.752
A8G U23A | 0.9
A8G U23G | 0.776
A8G U69C | 1.16
A8G U69G | 1.19
A8G G73A | 0.369
U9A A70U | 0.997
U9A A70C | 0.767
A8G A56G | 0.719
A8G A70U | 0.831
A8G A70G | 1.09
A8G C36G | 0.104
A8U C36A | 0.0811
A8U C36G | 0.125
A8U C36U | 0.554
A8U C14U | 0.864
A8U U72C | 0.443
A8U U72A | 0.369
A8U U72G | 0.289
A8G C41A | 0.914

Variant | self-cleavage
U9A A16C | 0.712
U9A A16G | 1.37
A8G G67A | 0.755
A8U G25U | 0.106
A8G C33G | 0.0755
A8G U20C | 0.217
A8C U37G | 0.166
U9A C14G | 0.604
U9A C14U | 1.11
A8U G50U | 0.848
A8U G50C | 0.939
A8G C84U | 0.864
A8G C84G | 0.396
A8G G17A | 0.629
A8G G17C | 0.0519
U9A A51G | 0.59
U9A A51U | 0.914
A8C U79G | 0.462
A8C U79C | 0.181
A8G C22A | 0.101
A8G G10U | 0.431
A8G G59A | 0.743
A8C U27G | 0.88
A8C U27C | 0.739

Variant | self-cleavage
A8U C18U | 0.631
A8U C18A | 0.0554
A8U C18G | 0.172
A8G U46C | 0.782
A8G A45U | 0.692
A8G A45C | 0.332
A8G G50U | 0.984
A8G C75G | 0.525
A8G C75U | 0.133
A8U G55U | 0.635
A8U G55A | 0.749
U9A C85U | 0.906
A8C U23G | 0.332
A8U C63A | 0.415
U9A C62A | 1.03
U9A C62G | 0.939
A8G C86G | 1.23
A8G C86A | 1.15
U9A A45G | 0.733
U9A A45U | 0.719
U9A A45C | 0.723
A8U C61G | 0.623
